Experimental findings from doi:10.1101/2020.12.15.422856 (bioRxiv, 2020) are described below.

The data set deals with the molecule itself. Description: SEC. (In gel filtration, larger molecules generally elute earlier.)

B1: Mer2 (wild-type, full-length) (natural protein)
chain: MVARGRTDEISTDVSEANSEHSLMITETSSPFRSIFSHSGKVANAGALEESDKQILEWAGKLELESMELRENSDKLIKVLNENSKTLCKSLNKFNQLLEQDAATNGNVKTLIKDLASQIENQLDKVSTAMLSKGDEKKTKSDSSYRQVLVEEISRYNSKITRHVTNKQHETEKSMRCTQEMLFNVGSQLEDVHKVLLSLSKDMHSLQTRQTALEMAFREKADHAYDRPDVSLNGTTLLHDMDEAHDKQRKKSVPPPRMMVTRSMKRRRSSSPTLSTSQNHNSEDNDDASHRLKRAARTIIPWEELRPDTLESEL
In the case of B1, the binding result was “binds”.
